This is an account of results in paper PMC10131064 (The Journal of Biological Chemistry, 2023).

Holding throughout (assay): SPR
The target in experiment [1] is T1, human MDGA1 WT soluble ectodomain (residues 22-920, lacking the GPI anchor region), (His)6-tagged (human, UniProt Q8NFP4-1 22-920).
T1 sequence: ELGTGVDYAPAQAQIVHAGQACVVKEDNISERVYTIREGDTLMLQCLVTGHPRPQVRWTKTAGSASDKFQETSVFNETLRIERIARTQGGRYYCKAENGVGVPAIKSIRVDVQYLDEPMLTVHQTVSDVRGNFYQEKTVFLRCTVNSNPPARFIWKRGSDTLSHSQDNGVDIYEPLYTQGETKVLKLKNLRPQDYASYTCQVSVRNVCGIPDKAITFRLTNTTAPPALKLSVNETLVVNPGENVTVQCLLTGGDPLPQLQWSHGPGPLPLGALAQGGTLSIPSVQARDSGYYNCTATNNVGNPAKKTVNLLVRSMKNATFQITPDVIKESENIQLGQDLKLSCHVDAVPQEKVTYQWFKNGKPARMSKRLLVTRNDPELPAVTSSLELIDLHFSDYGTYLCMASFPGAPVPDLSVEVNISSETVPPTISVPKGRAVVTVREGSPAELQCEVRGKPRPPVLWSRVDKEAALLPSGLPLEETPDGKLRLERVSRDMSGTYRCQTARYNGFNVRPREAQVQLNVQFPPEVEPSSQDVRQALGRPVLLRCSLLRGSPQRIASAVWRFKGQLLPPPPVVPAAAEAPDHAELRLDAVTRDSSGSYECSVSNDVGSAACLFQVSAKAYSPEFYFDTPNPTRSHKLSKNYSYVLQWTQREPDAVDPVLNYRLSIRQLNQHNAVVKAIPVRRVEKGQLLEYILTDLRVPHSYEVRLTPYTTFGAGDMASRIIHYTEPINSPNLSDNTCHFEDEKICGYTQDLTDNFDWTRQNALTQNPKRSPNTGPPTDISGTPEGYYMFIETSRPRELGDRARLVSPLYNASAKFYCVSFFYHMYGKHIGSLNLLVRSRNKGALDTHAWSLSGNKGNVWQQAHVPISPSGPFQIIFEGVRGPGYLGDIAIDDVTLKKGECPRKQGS

Experiment [2] concerns the target T2, human MDGA1 I336D soluble ectodomain, (His)6-tagged (human, UniProt Q8NFP4-1 22-920, I336D).
T2 sequence: T1 sequence with I322D

In experiment [3] the target is T3, human MDGA1 T135C/N313C soluble ectodomain, (His)6-tagged (human, UniProt Q8NFP4-1 22-920, T135C | N313C).
T3 sequence: T1 sequence with T121C, N299C

The target of experiment [4] is T4, human MDGA1 V314D soluble ectodomain, (His)6-tagged (human, UniProt Q8NFP4-1 22-920, V314D).
T4 sequence: T1 sequence with V300D

Substitutions are numbered along the chain they refer to.

B1: extracellular domain of rat NLGN2 (residues V43-H612) with splice insert A (domain or fragment, UniProt Q62888-1 43-612, looked up)
chain: VVNTAYGRVRGVRRELNNEILGPVVQFLGVPYATPPLGARRFQPPEAPASWPGVRNATTLPPACPQNLHGALPAIMLPVWFTDNLEAAATYVQNQSEDCLYLNLYVPTEDGPLTKKRDEATLNPPDTDIRDSGKKPVMLFLHGGSYMEGTGNMFDGSVLAAYGNVIVATLNYRLGVLGFLSTGDQAAKGNYGLLDQIQALRWLSENIAHFGGDPERITIFGSGAGASCVNLLILSHHSEGLFQKAIAQSGTAISSWSVNYQPLKYTRLLAAKVGCDREDSTEAVECLRRKSSRELVDQDVQPARYHIAFGPVVDGDVVPDDPEILMQQGEFLNYDMLIGVNQGEGLKFVEDSAESEDGVSASAFDFTVSNFVDNLYGYPEGKDVLRETIKFMYTDWADRDNGEMRRKTLLALFTDHQWVAPAVATAKLHADYQSPVYFYTFYHHCQAEGRPEWADAAHGDELPYVFGVPMVGATDLFPCNFSKNDVMLSAVVMTYWTNFAKTGDPNQPVPQDTKFIHTKPNRFEEVVWSKFNSKEKQYLHIGLKPRVRDNYRANKVAFWLELVPHLHNLH
As for B1, in experiment [1], the affinity, expressed as Kd, was 3.4 nM. In addition, the binding result in experiment [2], in experiment [3] and in experiment [4] was “binds” each time.

For orientation: Kd means the free concentration of one partner at which half of the binding sites on the other are occupied at equilibrium, for simple one-to-one binding. Higher therefore signals weaker binding.
